US20260015399A1 (Boehringer Ingelheim, published 2026)
*1 amine or outer side, *2 acyl side, *3 side chain or, on linkers, in order; H or OH if unused. Side-chain parts run from the residue outwards. The star is where a group is joined. C18 diacid = O=C(O)CCCCCCCCCCCCCCCCC(=O)*; γGlu = O=C(O)[C@H](CCC(=O)[*:2])N[*:1]; Isovaleryl = CC(C)CC(=O)*; Ahx = NCCCCCC(=O)O

T1: human NPY2 receptor (human, UniProt P49146 1-381)
T1 construct: whole, on cells; also called hNPY2-R; hNPY2R
T1 sequence (looked up): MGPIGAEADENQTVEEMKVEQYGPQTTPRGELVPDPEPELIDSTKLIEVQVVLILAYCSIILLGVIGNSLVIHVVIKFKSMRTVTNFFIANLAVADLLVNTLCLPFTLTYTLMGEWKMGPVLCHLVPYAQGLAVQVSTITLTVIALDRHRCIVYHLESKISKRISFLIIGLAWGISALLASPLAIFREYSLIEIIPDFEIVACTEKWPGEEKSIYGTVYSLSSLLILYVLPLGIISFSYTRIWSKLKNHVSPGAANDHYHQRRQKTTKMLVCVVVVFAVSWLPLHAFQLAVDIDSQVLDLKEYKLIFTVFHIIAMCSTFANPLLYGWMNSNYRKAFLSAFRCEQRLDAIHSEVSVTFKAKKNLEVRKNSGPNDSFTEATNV

B1: Compound 22 (peptide)
peptide: Isovaleryl-APEK([Ahx-γGlu-C18 diacid])PEEDPTPEELQRYYVSLRHYYNWLTRQRY-NH2
SMILES: CC(C)CC(=O)N[C@@H](C)C(=O)N1CCC[C@H]1C(=O)N[C@@H](CCC(=O)O)C(=O)N[C@@H](CCCCNC(=O)CCCCCNC(=O)CC[C@H](NC(=O)CCCCCCCCCCCCCCCCC(=O)O)C(=O)O)C(=O)N1CCC[C@H]1C(=O)N[C@@H](CCC(=O)O)C(=O)N[C@@H](CCC(=O)O)C(=O)N[C@@H](CC(=O)O)C(=O)N1CCC[C@H]1C(=O)N[C@H](C(=O)N1CCC[C@H]1C(=O)N[C@@H](CCC(=O)O)C(=O)N[C@@H](CCC(=O)O)C(=O)N[C@@H](CC(C)C)C(=O)N[C@@H](CCC(N)=O)C(=O)N[C@@H](CCCNC(=N)N)C(=O)N[C@@H](Cc1ccc(O)cc1)C(=O)N[C@@H](Cc1ccc(O)cc1)C(=O)N[C@H](C(=O)N[C@@H](CO)C(=O)N[C@@H](CC(C)C)C(=O)N[C@@H](CCCNC(=N)N)C(=O)N[C@@H](Cc1c[nH]cn1)C(=O)N[C@@H](Cc1ccc(O)cc1)C(=O)N[C@@H](Cc1ccc(O)cc1)C(=O)N[C@@H](CC(N)=O)C(=O)N[C@@H](Cc1c[nH]c2ccccc12)C(=O)N[C@@H](CC(C)C)C(=O)N[C@H](C(=O)N[C@@H](CCCNC(=N)N)C(=O)N[C@@H](CCC(N)=O)C(=O)N[C@@H](CCCNC(=N)N)C(=O)N[C@@H](Cc1ccc(O)cc1)C(N)=O)[C@@H](C)O)C(C)C)[C@@H](C)O
B2: Compound 25 (peptide)
peptide: Isovaleryl-APEK([Ahx-γGlu-C18 diacid])PEADATPEELQRYYISLRHYYNWLTRQRY-NH2
SMILES: CC[C@H](C)[C@H](NC(=O)[C@H](Cc1ccc(O)cc1)NC(=O)[C@H](Cc1ccc(O)cc1)NC(=O)[C@H](CCCNC(=N)N)NC(=O)[C@H](CCC(N)=O)NC(=O)[C@H](CC(C)C)NC(=O)[C@H](CCC(=O)O)NC(=O)[C@H](CCC(=O)O)NC(=O)[C@@H]1CCCN1C(=O)[C@@H](NC(=O)[C@H](C)NC(=O)[C@H](CC(=O)O)NC(=O)[C@H](C)NC(=O)[C@H](CCC(=O)O)NC(=O)[C@@H]1CCCN1C(=O)[C@H](CCCCNC(=O)CCCCCNC(=O)CC[C@H](NC(=O)CCCCCCCCCCCCCCCCC(=O)O)C(=O)O)NC(=O)[C@H](CCC(=O)O)NC(=O)[C@@H]1CCCN1C(=O)[C@H](C)NC(=O)CC(C)C)[C@@H](C)O)C(=O)N[C@@H](CO)C(=O)N[C@@H](CC(C)C)C(=O)N[C@@H](CCCNC(=N)N)C(=O)N[C@@H](Cc1c[nH]cn1)C(=O)N[C@@H](Cc1ccc(O)cc1)C(=O)N[C@@H](Cc1ccc(O)cc1)C(=O)N[C@@H](CC(N)=O)C(=O)N[C@@H](Cc1c[nH]c2ccccc12)C(=O)N[C@@H](CC(C)C)C(=O)N[C@H](C(=O)N[C@@H](CCCNC(=N)N)C(=O)N[C@@H](CCC(N)=O)C(=O)N[C@@H](CCCNC(=N)N)C(=O)N[C@@H](Cc1ccc(O)cc1)C(N)=O)[C@@H](C)O
B3: Compound 28 (peptide)
peptide: Isovaleryl-APEK([Ahx-γGlu-C18 diacid])PPEDATPEEIQRYYVSLRHYYNWLTRQRY-NH2
SMILES: CC[C@H](C)[C@H](NC(=O)[C@H](CCC(=O)O)NC(=O)[C@H](CCC(=O)O)NC(=O)[C@@H]1CCCN1C(=O)[C@@H](NC(=O)[C@H](C)NC(=O)[C@H](CC(=O)O)NC(=O)[C@H](CCC(=O)O)NC(=O)[C@@H]1CCCN1C(=O)[C@@H]1CCCN1C(=O)[C@H](CCCCNC(=O)CCCCCNC(=O)CC[C@H](NC(=O)CCCCCCCCCCCCCCCCC(=O)O)C(=O)O)NC(=O)[C@H](CCC(=O)O)NC(=O)[C@@H]1CCCN1C(=O)[C@H](C)NC(=O)CC(C)C)[C@@H](C)O)C(=O)N[C@@H](CCC(N)=O)C(=O)N[C@@H](CCCNC(=N)N)C(=O)N[C@@H](Cc1ccc(O)cc1)C(=O)N[C@@H](Cc1ccc(O)cc1)C(=O)N[C@H](C(=O)N[C@@H](CO)C(=O)N[C@@H](CC(C)C)C(=O)N[C@@H](CCCNC(=N)N)C(=O)N[C@@H](Cc1c[nH]cn1)C(=O)N[C@@H](Cc1ccc(O)cc1)C(=O)N[C@@H](Cc1ccc(O)cc1)C(=O)N[C@@H](CC(N)=O)C(=O)N[C@@H](Cc1c[nH]c2ccccc12)C(=O)N[C@@H](CC(C)C)C(=O)N[C@H](C(=O)N[C@@H](CCCNC(=N)N)C(=O)N[C@@H](CCC(N)=O)C(=O)N[C@@H](CCCNC(=N)N)C(=O)N[C@@H](Cc1ccc(O)cc1)C(N)=O)[C@@H](C)O)C(C)C
B4: Compound 29 (peptide)
peptide: Isovaleryl-APEK([Ahx-γGlu-C18 diacid])PEADSSPEELQRYYVSLRHYYNWLTRQRY-NH2
SMILES: CC(C)CC(=O)N[C@@H](C)C(=O)N1CCC[C@H]1C(=O)N[C@@H](CCC(=O)O)C(=O)N[C@@H](CCCCNC(=O)CCCCCNC(=O)CC[C@H](NC(=O)CCCCCCCCCCCCCCCCC(=O)O)C(=O)O)C(=O)N1CCC[C@H]1C(=O)N[C@@H](CCC(=O)O)C(=O)N[C@@H](C)C(=O)N[C@@H](CC(=O)O)C(=O)N[C@@H](CO)C(=O)N[C@@H](CO)C(=O)N1CCC[C@H]1C(=O)N[C@@H](CCC(=O)O)C(=O)N[C@@H](CCC(=O)O)C(=O)N[C@@H](CC(C)C)C(=O)N[C@@H](CCC(N)=O)C(=O)N[C@@H](CCCNC(=N)N)C(=O)N[C@@H](Cc1ccc(O)cc1)C(=O)N[C@@H](Cc1ccc(O)cc1)C(=O)N[C@H](C(=O)N[C@@H](CO)C(=O)N[C@@H](CC(C)C)C(=O)N[C@@H](CCCNC(=N)N)C(=O)N[C@@H](Cc1c[nH]cn1)C(=O)N[C@@H](Cc1ccc(O)cc1)C(=O)N[C@@H](Cc1ccc(O)cc1)C(=O)N[C@@H](CC(N)=O)C(=O)N[C@@H](Cc1c[nH]c2ccccc12)C(=O)N[C@@H](CC(C)C)C(=O)N[C@H](C(=O)N[C@@H](CCCNC(=N)N)C(=O)N[C@@H](CCC(N)=O)C(=O)N[C@@H](CCCNC(=N)N)C(=O)N[C@@H](Cc1ccc(O)cc1)C(N)=O)[C@@H](C)O)C(C)C
B5: Compound 24 (peptide)
peptide: Isovaleryl-APEK([Ahx-γGlu-C18 diacid])PEEDSSPEELQRYYVALRHYYNWLTRQRY-NH2
SMILES: CC(C)CC(=O)N[C@@H](C)C(=O)N1CCC[C@H]1C(=O)N[C@@H](CCC(=O)O)C(=O)N[C@@H](CCCCNC(=O)CCCCCNC(=O)CC[C@H](NC(=O)CCCCCCCCCCCCCCCCC(=O)O)C(=O)O)C(=O)N1CCC[C@H]1C(=O)N[C@@H](CCC(=O)O)C(=O)N[C@@H](CCC(=O)O)C(=O)N[C@@H](CC(=O)O)C(=O)N[C@@H](CO)C(=O)N[C@@H](CO)C(=O)N1CCC[C@H]1C(=O)N[C@@H](CCC(=O)O)C(=O)N[C@@H](CCC(=O)O)C(=O)N[C@@H](CC(C)C)C(=O)N[C@@H](CCC(N)=O)C(=O)N[C@@H](CCCNC(=N)N)C(=O)N[C@@H](Cc1ccc(O)cc1)C(=O)N[C@@H](Cc1ccc(O)cc1)C(=O)N[C@H](C(=O)N[C@@H](C)C(=O)N[C@@H](CC(C)C)C(=O)N[C@@H](CCCNC(=N)N)C(=O)N[C@@H](Cc1c[nH]cn1)C(=O)N[C@@H](Cc1ccc(O)cc1)C(=O)N[C@@H](Cc1ccc(O)cc1)C(=O)N[C@@H](CC(N)=O)C(=O)N[C@@H](Cc1c[nH]c2ccccc12)C(=O)N[C@@H](CC(C)C)C(=O)N[C@H](C(=O)N[C@@H](CCCNC(=N)N)C(=O)N[C@@H](CCC(N)=O)C(=O)N[C@@H](CCCNC(=N)N)C(=O)N[C@@H](Cc1ccc(O)cc1)C(N)=O)[C@@H](C)O)C(C)C
B6: Compound 27 (peptide)
peptide: Isovaleryl-APEK([Ahx-γGlu-C18 diacid])PEEDAEPEESQRYYVSLRHYYNWLTRQRY-NH2
SMILES: CC(C)CC(=O)N[C@@H](C)C(=O)N1CCC[C@H]1C(=O)N[C@@H](CCC(=O)O)C(=O)N[C@@H](CCCCNC(=O)CCCCCNC(=O)CC[C@H](NC(=O)CCCCCCCCCCCCCCCCC(=O)O)C(=O)O)C(=O)N1CCC[C@H]1C(=O)N[C@@H](CCC(=O)O)C(=O)N[C@@H](CCC(=O)O)C(=O)N[C@@H](CC(=O)O)C(=O)N[C@@H](C)C(=O)N[C@@H](CCC(=O)O)C(=O)N1CCC[C@H]1C(=O)N[C@@H](CCC(=O)O)C(=O)N[C@@H](CCC(=O)O)C(=O)N[C@@H](CO)C(=O)N[C@@H](CCC(N)=O)C(=O)N[C@@H](CCCNC(=N)N)C(=O)N[C@@H](Cc1ccc(O)cc1)C(=O)N[C@@H](Cc1ccc(O)cc1)C(=O)N[C@H](C(=O)N[C@@H](CO)C(=O)N[C@@H](CC(C)C)C(=O)N[C@@H](CCCNC(=N)N)C(=O)N[C@@H](Cc1c[nH]cn1)C(=O)N[C@@H](Cc1ccc(O)cc1)C(=O)N[C@@H](Cc1ccc(O)cc1)C(=O)N[C@@H](CC(N)=O)C(=O)N[C@@H](Cc1c[nH]c2ccccc12)C(=O)N[C@@H](CC(C)C)C(=O)N[C@H](C(=O)N[C@@H](CCCNC(=N)N)C(=O)N[C@@H](CCC(N)=O)C(=O)N[C@@H](CCCNC(=N)N)C(=O)N[C@@H](Cc1ccc(O)cc1)C(N)=O)[C@@H](C)O)C(C)C

The binders below were run against T1, human NPY2 receptor (assay: RLB: displacement of 125I-PYY(1-36) from hNPY2R membranes).
Procedure: The filtration RLB assay was carried out in 96-well plates in a final volume of 100 μl per well. Freeze-dried test peptides were dissolved in 100% dimethyl sulfoxide (DMSO) to stock solutions of 1 mM and serial dilutions were performed in assay buffer (50 mM HEPES, 5 mM MgCl₂, 1 mM CaCl₂), pH 7.4) containing 0.2% ovalbumin. […] Next, 80 μL membranes (HTS066M, ChemiSCREEN™ Human Neuropeptide Y2 Receptor Membrane Preparation, CHEMICON) were added to each well to give a final protein concentration of 0.5 μg/well. The plates were sealed and incubated at room temperature for 2 hours in a plate shaker set at 400 rpm. The incubation was stopped by vacuum filtration onto 0.5% polyethylene amine (PEI) presoaked GF/C filters using a 96-well FilterMate™ harvester (Perkin Elmer) followed by four washes with 300 μl/well ice-cold wash buffer (50 mM HEPES, 500 mM NaCl, pH7.4). Filter plates were then dried for 60 min at room temperature and the bottom of the plates was sealed with backing tape UniFilter-96. Finally, 50 μl/well scintillation counter cocktail (Microscint20, Packard) was added and the radioactivity was counted in the Packard TopCount NXT scintillation counter. IC₅₀ values (the half maximal inhibitory concentration of the agonist) were calculated by nonlinear regression analysis of sigmoidal dose-response curves.

Going from B1 to B2, the Ki falls from 4.98 nM to 1.55 nM (3.2-fold).

Compared with B3, B4 is 2.8-fold higher in Ki: 0.49 nM for the first, 1.36 nM for the second. The first binds more tightly here.

Compared with B5, B6 is 3.1-fold higher in Ki: 3.39 nM for the first, 10.5 nM for the second.
